# According to publication PMC9409550 (PLoS ONE, 2022):
# B1: CDY14HL-Fc1 (Fc fusion)
# chain: QSTIEEQAKTFLDMFNHKAEDLFYQSSLAAWNYNTNITEENVQNMNNAGDKWSAFLKEQSTFAQMYPLQEIQNPTVKLQLQALQQNGSSVLSEDKSKRLNTILNTMSTIYSTGKVCNPDNPQECLLLEPGLNEIMANSLDYNERLWAWESWRSEVGKQLRPLYEEYVVLKNEMARANHYEDYGDYWRGDYEVNGVDGYDYSRGQLIEDVEHTFEEIKPLYEHLHAYVRAKLMNAYPSYISPIGCLPAHLLGDMWGRFWTNLYSLTVPFGQKPNIDVTDAMVDQAWDAQRIFKEAEKFFVSVGLPNMTQGFWEYSMLTDPGNVQKAVCLPTAWDLGKGDFRILMCTKVTMDDFLTAHHEMGHIQYDMAYAAQPFLLRNGANEGFHEAVGEIMSLSAATPKHLKSIGLLSPDFQEDNETEINFLLKQALTIVGTLPFTYMLEKWRWMVFKGEIPKDQWMKKWWEMKREIVGVVEPVPHDETYCDPASLFHVSNDYSFIRYYTRTLYQFQFQEALCQAAKHEGPLHKCDISNSTEAGQKLFNMLRLGKSEPWTLALENVVGAKNMNVRPLLNYFEPLFTWLKDQNKNSFVGWSTDWSPYAD
# Legend:
# [1] = target: SARS-CoV-2 Omicron BA.1 RBD, yeast-displayed (SARS-CoV-2, UniProt P0DTC2); assay: flow cytometry on cells; settings: one partner purified
# [2] = target: SARS-CoV-2 Omicron BA.2 RBD, yeast-displayed (SARS-CoV-2, UniProt P0DTC2); assay: flow cytometry on cells; settings: one partner purified
binder,measurement,setting,value
B1,Kd,[1],31 pM
same,Kd,[2],24 pM
